B1: Vam3 cytoplasmic domain (residues 1–264) fused C-terminally to GST (domain or fragment)
chain: MSFFDIEAQSSKGNSQQEPQFSTNQKTKELSNLIETFAEQSRVLEKECTKIGSKRDSKELRYKIETELIPNCTSVRDKIESNILIHQNGKLSADFKNLKTKYQSLQQSYNQRKSLFPLKTPISPGTSKERKDIHPRTEAVRQDPESSYISIKVNEQSPLLHNEGQHQLQLQEEQEQQQQGLSQEELDFQTIIHQERSQQIGRIHTAVQEVNAIFHQLGSLVKEQGEQVTTIDENISHLHDNMQNANKQLTRADQHQRDRNKCGK
B3: His7-MBP-Vti1 cytoplasmic domain (domain or fragment)
chain: SSLLISYESDFKTTLEQAKASLAEAPSQPLSQRNTTLKHVEQQQDELFDLLDQMDVEVNNSIGDASERATYKAKLREWKKTIQSDIKRPLQSLVDSGDRDRLFGDLNASNIDDDQRQQLLSNHAILQKSGDRLKDASRIANETEGIGSQIMMDLRSQRETLENARQTLFQADSYVDKSIKTLKTMTRRLVANK
B5: His6-Nyv1 cytoplasmic domain (domain or fragment)
chain: MKRFNVSYVEVIKNGETISSCFQPFQKNENYGTITSANEQITPVIFHNLIMDMVLPKVVPIKGNKVTKMSMNLIDGFDCFYSTDDHDPKTVYVCFTLVDMPKILPIRILSGLQEYESNATNELLSSHVGQILDSFHEELVEYRNQTLNSSGNGQSSNGNGQNTISDIGDATEDQIKDVIQIMNDNIDKFLERQERVSLLVDKTSQLNSSSNKFRRKAVNIKEIMWWQKVKN
B7: GST-Sed5 SNARE domain (residues 170–319) (domain or fragment)
chain: ANKDRWQKLTTDTGHAPADDQTQSNHAADLTTYNNSNPFMTSLLDESSEKNNNSSNQGELSFPQNDSQLMLMEEGQLSNNVYLQERNRAVETIESTIQEVGNLFQQLASMVQEQGEVIQRIDANVDDIDLNISGAQRELLKYFDRIKSNR

What all share (test): pull-down
The target of one assay is T1, His6-Vam7 (S. cerevisiae, UniProt P32912 1-316).
T1 sequence: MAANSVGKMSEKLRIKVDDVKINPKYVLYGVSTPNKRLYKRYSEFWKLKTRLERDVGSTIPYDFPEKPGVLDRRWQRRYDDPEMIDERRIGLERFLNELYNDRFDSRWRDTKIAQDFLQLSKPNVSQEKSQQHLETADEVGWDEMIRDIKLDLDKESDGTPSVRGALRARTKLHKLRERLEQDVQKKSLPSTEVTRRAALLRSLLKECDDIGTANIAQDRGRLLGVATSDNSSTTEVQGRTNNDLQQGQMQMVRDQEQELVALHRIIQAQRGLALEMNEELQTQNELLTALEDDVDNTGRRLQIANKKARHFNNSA

A further assay has as its target T2, purified Vps33 (S. cerevisiae, UniProt P20795 1-691).
T2 sequence: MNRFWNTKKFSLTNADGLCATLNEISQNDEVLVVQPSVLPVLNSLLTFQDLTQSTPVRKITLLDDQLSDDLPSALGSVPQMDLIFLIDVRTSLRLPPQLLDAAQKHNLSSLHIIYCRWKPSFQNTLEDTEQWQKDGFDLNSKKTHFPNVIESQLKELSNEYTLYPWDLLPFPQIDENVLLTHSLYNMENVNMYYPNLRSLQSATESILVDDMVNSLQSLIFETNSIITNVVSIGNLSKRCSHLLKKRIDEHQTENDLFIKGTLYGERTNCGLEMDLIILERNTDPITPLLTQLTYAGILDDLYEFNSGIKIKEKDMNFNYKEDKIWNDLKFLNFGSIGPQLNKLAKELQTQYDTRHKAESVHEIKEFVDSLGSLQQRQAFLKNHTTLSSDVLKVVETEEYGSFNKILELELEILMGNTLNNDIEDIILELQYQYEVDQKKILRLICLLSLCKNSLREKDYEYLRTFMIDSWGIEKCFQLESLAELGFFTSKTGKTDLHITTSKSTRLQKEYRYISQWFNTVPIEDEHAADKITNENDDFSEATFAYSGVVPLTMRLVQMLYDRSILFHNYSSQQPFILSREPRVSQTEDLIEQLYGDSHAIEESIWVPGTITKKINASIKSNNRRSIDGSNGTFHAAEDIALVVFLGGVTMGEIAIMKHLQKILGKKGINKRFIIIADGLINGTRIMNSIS

In assay [1] the target is B1.
The target in assay [2] is B3.
Assay [3] concerns the target B5.
The target in assay [4] is B7.
For assay [5], the target named is T3, His6-Sec22 cytoplasmic domain (UniProt P22214 1-192).
T3 sequence: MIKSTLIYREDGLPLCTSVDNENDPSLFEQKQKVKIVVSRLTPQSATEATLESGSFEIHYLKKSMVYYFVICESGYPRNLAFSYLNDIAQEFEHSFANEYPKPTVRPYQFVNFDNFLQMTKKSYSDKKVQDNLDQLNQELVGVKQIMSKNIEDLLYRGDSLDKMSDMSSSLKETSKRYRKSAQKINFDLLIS

As to B1, the binding result with His6-Vam7 is “binds”.

B2: minimal SNARE complex lacking the N-terminal domains of Vam3 and Vam7 (complex)
chain 1: SQEELDFQTIIHQERSQQIGRIHTAVQEVNAIFHQLGSLVKEQGEQVTTIDENISHLHDNMQNANKQLTRADQHQRDRNKCGK
chain 2: PSTEVTRRAALLRSLLKECDDIGTANIAQDRGRLLGVATSDNSSTTEVQGRTNNDLQQGQMQMVRDQEQELVALHRIIQAQRGLALEMNEELQTQNELLTALEDDVDNTGRRLQIANKKARHFNNSA
chain 3: SSLLISYESDFKTTLEQAKASLAEAPSQPLSQRNTTLKHVEQQQDELFDLLDQMDVEVNNSIGDASERATYKAKLREWKKTIQSDIKRPLQSLVDSGDRDRLFGDLNASNIDDDQRQQLLSNHAILQKSGDRLKDASRIANETEGIGSQIMMDLRSQRETLENARQTLFQADSYVDKSIKTLKTMTRRLVANK
chain 4: MKRFNVSYVEVIKNGETISSCFQPFQKNENYGTITSANEQITPVIFHNLIMDMVLPKVVPIKGNKVTKMSMNLIDGFDCFYSTDDHDPKTVYVCFTLVDMPKILPIRILSGLQEYESNATNELLSSHVGQILDSFHEELVEYRNQTLNSSGNGQSSNGNGQNTISDIGDATEDQIKDVIQIMNDNIDKFLERQERVSLLVDKTSQLNSSSNKFRRKAVNIKEIMWWQKVKN
B2 showed a Kd with purified Vps33 of 2800 nM.
Regarding B3, in assay [1], the binding result is “binds”.

B4: Vam3 SNARE domain (residues 182–264) fused C-terminally to GST (domain or fragment)
chain: SQEELDFQTIIHQERSQQIGRIHTAVQEVNAIFHQLGSLVKEQGEQVTTIDENISHLHDNMQNANKQLTRADQHQRDRNKCGK
On to B4, for which the binding result in assay [2] and in assay [3] was “binds” throughout.
Consider B5, for which the binding result in assay [1] is recorded as “binds”.

B6: His6-Bet1 cytoplasmic domain (domain or fragment)
chain: MSSRFAGGNAYQRDTGRTQLFGPADGSNSLDDNVSSALGSTDKLDYSQSTLASLESQSEEQMGAMGQRIKALKSLSLKMGDEIRGSNQTIDQLGDTFHNTSVKLKRTFGNMMEMARR
Turning to B6, the binding result in assay [4] was “binds”.
As for B7, in assay [5], the binding result was “binds”.

By Kd is commonly meant a measure of binding affinity in units of concentration.
